Patent US20090186811A1, “Y2 Selective Receptor Agonists for Therapeutic Interventions” (priority 2004, published 2009)
Non-standard residues stand in square brackets, D forms with d. Primed or numbered codes have the meaning given here. No end group written: not given here. Aoc′ = not defined here

Columns and labels:
[1] = molecular target: T1, human Y2 receptor (human), P49146; test: competition binding, 125I-PYY displaced, COS-7 cells with human Y2
T1 chain: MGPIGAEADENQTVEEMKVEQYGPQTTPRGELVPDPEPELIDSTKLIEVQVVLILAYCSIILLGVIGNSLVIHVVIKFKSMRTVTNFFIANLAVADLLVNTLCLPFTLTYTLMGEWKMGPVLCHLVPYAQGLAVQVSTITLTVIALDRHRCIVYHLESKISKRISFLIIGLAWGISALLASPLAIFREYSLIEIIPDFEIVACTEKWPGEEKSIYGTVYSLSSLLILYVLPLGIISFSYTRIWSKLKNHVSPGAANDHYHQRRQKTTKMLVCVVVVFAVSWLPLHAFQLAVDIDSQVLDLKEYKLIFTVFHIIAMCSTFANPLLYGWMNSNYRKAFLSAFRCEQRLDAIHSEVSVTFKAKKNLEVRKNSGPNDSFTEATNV

[2] = molecular target: human Y4 receptor (human), P50391; test: competition binding, 125I-PP displaced, COS-7 cells with human Y4
[3] = molecular target: T1, human Y2 receptor (human), P49146; test: cell-based or functional assay
[4] = molecular target: T2, human Y1 receptor (human), P25929; test: cell-based or functional assay
T2 chain: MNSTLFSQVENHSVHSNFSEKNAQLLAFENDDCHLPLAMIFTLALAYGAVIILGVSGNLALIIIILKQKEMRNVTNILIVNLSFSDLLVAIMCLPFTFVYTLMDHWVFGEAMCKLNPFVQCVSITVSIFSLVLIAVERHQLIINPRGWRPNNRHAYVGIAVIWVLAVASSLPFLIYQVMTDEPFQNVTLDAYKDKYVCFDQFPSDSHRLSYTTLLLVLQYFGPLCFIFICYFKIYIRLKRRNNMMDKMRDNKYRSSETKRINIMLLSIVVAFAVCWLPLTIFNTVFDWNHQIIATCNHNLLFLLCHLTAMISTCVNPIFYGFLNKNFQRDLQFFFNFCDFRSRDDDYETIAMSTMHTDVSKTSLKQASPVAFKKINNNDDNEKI

[5] = molecular target: human Y4 receptor (human), P50391; test: cell-based or functional assay
[6] = molecular target: T3, human Y5 receptor (human), Q15761; test: cell-based or functional assay
T3 chain: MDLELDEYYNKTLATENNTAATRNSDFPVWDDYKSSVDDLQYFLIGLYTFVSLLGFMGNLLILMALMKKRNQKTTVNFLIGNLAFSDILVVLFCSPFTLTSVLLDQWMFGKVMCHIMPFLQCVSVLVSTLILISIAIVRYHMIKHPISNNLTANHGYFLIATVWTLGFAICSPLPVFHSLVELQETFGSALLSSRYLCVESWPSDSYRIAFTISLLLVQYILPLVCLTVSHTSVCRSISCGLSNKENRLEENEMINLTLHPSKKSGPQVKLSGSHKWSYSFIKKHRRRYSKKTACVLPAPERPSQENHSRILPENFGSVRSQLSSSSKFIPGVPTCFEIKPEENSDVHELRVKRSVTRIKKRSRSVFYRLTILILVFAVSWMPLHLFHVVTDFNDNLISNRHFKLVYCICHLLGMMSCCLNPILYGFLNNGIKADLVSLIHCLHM

human Y4 receptor (human), P50391, sequence (P50391 whole entry): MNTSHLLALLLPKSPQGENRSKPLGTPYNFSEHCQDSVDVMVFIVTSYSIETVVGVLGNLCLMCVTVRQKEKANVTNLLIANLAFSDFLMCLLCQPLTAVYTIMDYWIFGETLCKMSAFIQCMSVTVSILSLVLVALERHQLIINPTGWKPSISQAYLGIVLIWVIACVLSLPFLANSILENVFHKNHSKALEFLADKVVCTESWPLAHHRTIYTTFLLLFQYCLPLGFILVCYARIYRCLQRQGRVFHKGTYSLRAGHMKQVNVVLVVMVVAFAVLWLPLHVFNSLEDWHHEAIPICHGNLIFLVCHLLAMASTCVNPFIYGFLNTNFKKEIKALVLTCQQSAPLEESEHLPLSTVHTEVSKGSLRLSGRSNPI

YCIK[Aoc′]RH[dC]LNLVTRQRY (cysteine pairing not given here; reading uncertain) [[Cys2, Aoc5-24, D-Cys27]PYY]
IC50 [1]: 0.87 nM | IC50 [2]: 267 nM | EC50 (inositol phosphate turnover) [3]: 3.7 nM | EC50 (inositol phosphate turnover) [4]: > 1000 nM | EC50 (inositol phosphate turnover) [5]: > 1000 nM | EC50 (inositol phosphate turnover) [6]: > 1000 nM
